According to FireProtDB (doi:10.1074/jbc.272.30.18686):

Details: Escherichia coli (strain K12); pH 3.2; Thermal; CD; glycine-HCl 10 mM; reversible: yes; whole UniProt chain shown

B1: Ribonuclease HI wild type, P0A7Y4 (protein)
chain: MLKQVEIFTDGSCLGNPGPGGYGAILRYRGREKTFSAGYTRTTNNRMELMAAIVALEALKEHCEVILSTDSQYVRQGITQWIHNWKKRGWKTADKKPVKNVDLWQRLDAALGQHQIKWEWVKGHAGHPENERCDELARAAAMNPTLEDTGYQVEV
  Tm: 53 °C
  unfolding enthalpy (van 't Hoff): 99.2 kcal/mol
